Target: T1, human Her3-His recombinant protein (human, UniProt P21860 20-643)
T1 construct: Recombinant His-tagged human Her3; not shown: His tag
Assay: BLI (Fortebio Octet 96e), antibody loaded on AMC sensor, human Her3-His 100-3.13 nM in solution

T1 sequence (P21860 20-643 limits assumed): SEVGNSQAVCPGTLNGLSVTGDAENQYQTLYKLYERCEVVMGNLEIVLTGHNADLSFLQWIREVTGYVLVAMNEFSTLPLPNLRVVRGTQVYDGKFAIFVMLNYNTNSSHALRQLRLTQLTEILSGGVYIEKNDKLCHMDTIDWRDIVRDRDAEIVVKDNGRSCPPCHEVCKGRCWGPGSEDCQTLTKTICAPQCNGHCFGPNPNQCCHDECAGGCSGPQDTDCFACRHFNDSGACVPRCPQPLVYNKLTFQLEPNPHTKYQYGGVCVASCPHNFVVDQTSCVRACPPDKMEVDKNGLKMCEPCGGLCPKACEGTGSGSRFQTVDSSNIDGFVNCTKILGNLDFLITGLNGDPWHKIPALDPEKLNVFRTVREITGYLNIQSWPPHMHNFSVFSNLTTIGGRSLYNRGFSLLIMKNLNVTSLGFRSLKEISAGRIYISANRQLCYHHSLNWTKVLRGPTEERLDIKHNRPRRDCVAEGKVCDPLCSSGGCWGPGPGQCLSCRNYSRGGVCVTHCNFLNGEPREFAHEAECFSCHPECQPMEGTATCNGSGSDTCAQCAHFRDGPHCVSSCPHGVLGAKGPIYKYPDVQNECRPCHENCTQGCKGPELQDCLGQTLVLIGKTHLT

Kd | koff | kon | Binder
2.43 nM | 0.000357 s⁻¹ | 147000 M⁻¹ s⁻¹ | monoclonal antibody 2F8 (antibody, V domains shown, also called 2F8-new; parental molecule 2F8) VH: QVQLQQWGAGLLKPSETLSLTCAVYGGSFSGYYWSWIRQPPGKGLEWIGEINHSGSTNYNPSLKSRVTISVETSKNQFSLKLSSVTAADTAVYYCARDKWTWYFDLWGRGTLVTVSS VL: not shown
2.53 nM | 0.000393 s⁻¹ | 156000 M⁻¹ s⁻¹ | antibody 3F5 (light chain mutant 2F8-Lm1 combined with heavy chain 2F8-H-new) (antibody, human IgG1, kappa, V domains shown, also called 2F8-m1; 3F5 mutant) VH: QVQLQQWGAGLLKPSETLSLTCAVYGGSFSGYYWSWIRQPPGKGLEWIGEINHSGSTNYNPSLKSRVTISVETSKNQFSLKLSSVTAADTAVYYCARDKWTWYFDLWGRGTLVTVSS VL: not shown
